In US20260345809 (published 2026):
Each block holds one binder with its values, some of them ahead of it.

How the values were obtained:
GPC3 [1] = target: T1, GPC3 (human, UniProt P51654); test: FACS, HepG2 cells
GPC3 [2] = target: T1, GPC3; test: FACS, GPC3-CHO-K1 cells
GPC3 [3] = target: T1, GPC3; test: FACS, Huh-7 cells
GPC3 [4] = target: T1, GPC3; test: FACS, HepG2 cells; remark: listed apart in the source

EC50 (GPC3 [1]): 0.745 nM
EC50 (GPC3 [2]): 0.956 nM
EC50 (GPC3 [3]): 0.953 nM
EC50 (GPC3 [4]): 0.269 µg/mL
B1: GC33 (antibody, V domains shown)
VH: QVQLVQSGAEVKKPGASVKVSCKASGYTFTDYEMHWVRQAPGQGLEWMGALDPKTGDTAYSQKFKGRVTLTADKSTSTAYMELSSLTSEDTAVYYCTRFYSYTYWGQGTLVTVSS
VL: DVVMTQSPLSLPVTPGEPASISCRSSQSLVHSNRNTYLHWYLQKPGQSPQLLIYKVSNRFSGVPDRFSGSGSGTDFTLKISRVEAEDVGVYYCSQNTHVPPTFGQGTKLEIKR

EC50 (GPC3 [4]): 0.143 µg/mL
B2: GC33-ZLA (antibody, V domains shown)
VH: B1 VH
VL: B1 VL
modifications: ADC, ZLA conjugate of GC33

EC50 (GPC3 [4]): 0.112 µg/mL
B3: GC33-L4-D4 (antibody, V domains shown)
VH: B1 VH
VL: B1 VL
modifications: ADC, MC-MMAF conjugate of GC33

EC50 (GPC3 [1]): 1.25 nM
EC50 (GPC3 [2]): 1.46 nM
EC50 (GPC3 [3]): 1.18 nM
B4: Y035 (antibody, V domains shown)
VH: EVQLVQSGAEVKKPGASVKVSCKASGYTHSDYEMHWVRQAPGQGLEWMGAIHPGSGDTAYNQRFKGRVTITADKSTSTAYMELSSLRSEDTAVYYCARFYSYAYWGQGTLVTVSA
VL: DIVMTQTPLSLPVTPGEPASISCRSSQSLVHSNGNTYLQWYLQWYLQKPGQSPQLLIYKVSNRFSGVPDRFSGSGSGTDFTLKISRVEAEDVGVYYCSQSIYVPYTFGQGTKLEIKR
